In article PMC6591006, “Broad and Potent Neutralizing Antibodies Recognize the Silent Face of the HIV Envelope” (Immunity, 2019):
Where a chain is given by its changes, count along the chain named.

B1: Monoclonal anti-HIV-1 Env SF12 (IgG) (antibody, V domains shown)
VH: QVQLQESGPGLVKPSETLSVTCRVSGGSLDLYYWSWIRQPPGKGLQWIGFVYFDGSYGDYDPSLRSRVTISADMSKNQISLRLKSVTPADTAVYYCARLGPGGIFDRWTGHYGDKWLDPWGQGTLVTVSS
VL: QIDLTQSPRTLSLSAGERATLLCRASQSVSNVALAWYQHKPGQAPRLLLHEASTRATGIPDRFIGSGSGRDFTLTITSLEPEDFAVYYCQLSGRRLGQGTKVEIK
B2: Monoclonal anti-HIV-1 Env SF5 (IgG) (antibody, V domains shown)
VH: B1 VH with L31R, K43E, F50H, S71T, N77Y, S80I, K84R
VL: B1 VL with D3V, T54I, T57A, I64V, E80H, Q98P

How the values were obtained:
[1] = target: T1, YU2 gp120 monomer (wild type) (HIV-1 group M subtype B isolate YU-2, UniProt P35961); assay: ELISA; YU2 gp120/gp140 proteins coated on the plate at 2 μg/ml; IgG in a 1:3 dilution series from 4 or 10 μg/ml, 1 h at room temperature or 37°C, in 1% BSA in PBS; detected with anti-human IgG; conditions: both partners purified
T1 construct: also called monomeric YU2 gp120; YU2 gp120 WT; source: 293-6E, transiently transfected, purified (Ni-NTA)

[2] = target: T2, YU2 gp140 foldon trimer (wild type) (HIV-1 group M subtype B isolate YU-2, UniProt P35961, stabilised); assay: as above; conditions: both partners purified
T2 construct: also called uncleaved YU2 gp140 foldon trimer; YU2 gp140 WT; source: 293-6E, transiently transfected, purified (Ni-NTA)

Binder	binding result [1]	binding result [2]
B1	binds	binds
B2	binds	binds
